From PMC3894748 (2013)

Molecular target: actin (Homo sapiens, UniProt P60709)
Assay: Ca2+-ATPase activity inhibition

Kd: 680 nM
B1: plasma membrane calcium pump (PMCA) (protein)
chain: MTNPSDRVLPANSMAESREGDFGCTVMELRKLMELRSRDALTQINVHYGGVQNLCSRLKTSPVEGLSGNPADLEKRRQVFGHNVIPPKKPKTFLELVWEALQDVTLIILEIAAIISLVLSFYRPAGEENELCGQVATTPEDENEAQAGWIEGAAILFSVIIVVLVTAFNDWSKEKQFRGLQCRIEQEQKFSIIRNGQLIQLPVAEIVVGDIAQVKYGDLLPADGILIQGNDLKIDESSLTGESDHVKKSLDKDPMLLSGTHVMEGSGRMVVTAVGVNSQTGIILTLLGVNEDDEGEKKKKGKKQGVPENRNKAKTQDGVALEIQPLNSQEGIDNEEKDKKAVKVPKKEKSVLQGKLTRLAVQIGKAGLLMSALTVFILILYFVIDNFVINRRPWLPECTPIYIQYFVKFFIIGITVLVVAVPEGLPLAVTISLAYSVKKMMKDNNLVRHLDACETMGNATAICSDKTGTLTMNRMTVVQAYIGGIHYRQIPSPDVFLPKVLDLIVNGISINSAYTSKILPPEKEGGLPRQVGNKTECALLGFVTDLKQDYQAVRNEVPEEKLYKVYTFNSVRKSMSTVIRNPNGGFRMYSKGASEIILRKCNRILDRKGEAVPFKNKDRDDMVRTVIEPMACDGLRTICIAYRDFDDTEPSWDNENEILTELTCIAVVGIEDPVRPEVPDAIAKCKQAGITVRMVTGDNINTARAIATKCGILTPGDDFLCLEGKEFNRLIRNEKGEVEQEKLDKIWPKLRVLARSSPTDKHTLVKGIIDSTVGEHRQVVAVTGDGTNDGPALKKADVGFAMGIAGTDVAKEASDIILTDDNFTSIVKAVMWGRNVYDSISKFLQFQLTVNVVAVIVAFTGACITQDSPLKAVQMLWVNLIMDTFASLALATEPPTESLLKRRPYGRNKPLISRTMMKNILGHAFYQLIVIFILVFAGEKFFDIDSGRKAPLHSPPSQHYTIVFNTFVLMQLFNEINSRKIHGEKNVFSGIYRNIIFCSVVLGTFICQIFIVEFGGKPFSCTSLSLSQWLWCLFIGIGELLWGQFISAIPTRSLKFLKEAGHGTTKEEITKDAEGLDEIDHAEMELRRGQILWFRGLNRIQTQIDVINTFQTGASFKGVLRRQNMGQHLDVKLVPSSSYIKVVKAFHSSLHESIQKPYNQKSIHSFMTHPEFAIEEELPRTPLLDEEEEENPDKASKFGTRVLLLDGEVTPYANTNNNAVDCNQVQLPQSDSSLQSLETSV
